This note sets out measurements from patent US20260365696A1, “INHIBITORS OF PTP1B / NCK1 INTERACTION AND METHODS OF MAKING AND USING SAME” (Radella Pharmaceuticals LLC, priority 2023, published 2026).

B1: MH002 (peptide)
chain: Ac-PPPEHIPPPARPPKR-NH2
B2: MSJ018 (peptide)
chain: Ac-PPPEHIAPPPRPPKR-NH2
B3: MH004 (peptide)
chain: Ac-PPPEHIPPPPRAPKR-NH2
B4: MH007 (peptide)
chain: Ac-PPPEHIPPPPRPPKA-NH2
B5: MH006 (peptide)
chain: Ac-PPPEHIPPPPRPPAR-NH2
B6: MSJ019 (peptide)
chain: Ac-PPPEHIPAPPRPPKR-NH2

This assay deals with T1, NCK1 SH3-2 domain (human).
T1 chain: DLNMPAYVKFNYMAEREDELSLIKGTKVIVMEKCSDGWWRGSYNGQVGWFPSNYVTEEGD
The experiment in a line: ITC. A general note: In ITC the heat of successive injections is recorded.
As a reminder, the Kd is the free concentration of one partner at which half of the binding sites on the other are occupied at equilibrium, for simple one-to-one binding. A higher Kd goes with lower affinity. The molecule B1 returned a Kd greater than 1000 µM.

In turn, B2 displayed an equilibrium dissociation constant (Kd) of less than 300 µM.

The molecule B3 returned a Kd of less than 300 µM.

B4: the dissociation constant (Kd) is greater than 1000 µM.

B5 came in with a Kd of less than 300 µM.

On to B6, for which the Kd was less than 300 µM.
